Measurements: patent publication US20040053357A1 (ICAGEN, published 2004)

Target: T1, Kv2.2 (UniProt Q92953 1-911, limits assumed)
T1 sequence (looked up): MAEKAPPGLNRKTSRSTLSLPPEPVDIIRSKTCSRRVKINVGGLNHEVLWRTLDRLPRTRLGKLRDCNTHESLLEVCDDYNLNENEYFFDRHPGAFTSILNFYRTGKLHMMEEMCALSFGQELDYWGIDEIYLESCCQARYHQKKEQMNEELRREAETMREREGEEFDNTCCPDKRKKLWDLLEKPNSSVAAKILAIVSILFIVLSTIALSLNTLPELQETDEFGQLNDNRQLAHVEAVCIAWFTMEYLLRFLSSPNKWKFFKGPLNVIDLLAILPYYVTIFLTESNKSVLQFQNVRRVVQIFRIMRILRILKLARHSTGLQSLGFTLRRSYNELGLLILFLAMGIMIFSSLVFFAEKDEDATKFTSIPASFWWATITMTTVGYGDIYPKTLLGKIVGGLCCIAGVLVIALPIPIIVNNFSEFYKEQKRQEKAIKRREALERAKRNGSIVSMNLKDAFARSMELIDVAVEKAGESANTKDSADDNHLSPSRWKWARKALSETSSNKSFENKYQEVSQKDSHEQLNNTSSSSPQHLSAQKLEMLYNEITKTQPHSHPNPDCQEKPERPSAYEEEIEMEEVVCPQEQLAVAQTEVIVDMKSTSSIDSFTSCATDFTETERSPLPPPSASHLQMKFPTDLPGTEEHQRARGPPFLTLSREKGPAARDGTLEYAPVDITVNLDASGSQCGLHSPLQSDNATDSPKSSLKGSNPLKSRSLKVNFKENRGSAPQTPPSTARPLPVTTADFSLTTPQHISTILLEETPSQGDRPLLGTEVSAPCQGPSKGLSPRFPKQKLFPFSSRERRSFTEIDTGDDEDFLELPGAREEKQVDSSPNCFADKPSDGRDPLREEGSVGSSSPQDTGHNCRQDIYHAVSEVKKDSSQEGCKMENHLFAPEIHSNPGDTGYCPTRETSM
Assay: cell-based or functional assay

B1: human Kv10.1 (other)
chain: MLKQSERRRSWSYRPWNTTENEGSQHRRSICSLGARSGSQASIHGWTEGNYNYYIEEDEDGEEEDQWKDDLAEEDQQAGEVTTAKPEGPSDPPALLSTLNVNVGGHSYQLDYCELAGFPKTRLGRLATSTSRSRQLSLCDDYEEQTDEYFFDRDPAVFQLVYNFYLSGVLLVLDGLCPRRFLEELGYWGVRLKYTPRCCRICFEERRDELSERLKIQHELRAQAQVEEAEELFRDMRFYGPQRRRLWNLMEKPFSSVAAKAIGVASSTFVLVSVVALALNTVEEMQQHSGQGEGGPDLRPILEHVEMLCMGFFTLEYLLRLASTPDLRRFARSALNLVDLVAILPLYLQLLLECFTGEGHQRGQTVGSVGKVGQVLRVMRLMRIFRILKLARHSTGLRAFGFTLRQCYQQVGCLLLFIAMGIFTFSAAVYSVEHDVPSTNFTTIPHSWWWAAVSISTVGYGDMYPETHLGRFFAFLCIAFGIILNGMPISILYNKFSDYYSKLKAYEYTTIRRERGEVNFMQRARKKIAECLLGSNPQLTPRQEN
  rate of activation at 0 mV: ~2 fold
